The target in the data set is ERF5 (Solanum lycopersicum, UniProt Q6Q4I4 1-244). Put plainly: EMSA; EMSA Kit with SYBR Green & SYPRO Ruby stains (Invitrogen), per kit instructions; buffer, salt, pH, temperature not stated. To be noted: protein: recombinant; tags: pET-32a vector fusion (His control used); label: none (SYBR Green stain).
Sequence of ERF5 (Q6Q4I4 entry or part of it): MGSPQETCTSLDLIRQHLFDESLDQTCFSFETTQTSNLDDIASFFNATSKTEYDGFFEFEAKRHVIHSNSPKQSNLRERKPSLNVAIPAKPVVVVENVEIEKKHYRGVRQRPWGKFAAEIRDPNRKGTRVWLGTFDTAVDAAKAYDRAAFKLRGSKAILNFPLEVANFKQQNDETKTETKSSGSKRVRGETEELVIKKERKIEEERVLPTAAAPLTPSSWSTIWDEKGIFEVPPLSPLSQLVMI

B1: ATG8d-competitor (mutated DRE) (dsDNA)
DNA 1: TCACGTTACATATGACAAACATAAAGATAA
DNA 2: TTATCTTTATGTTTGTCATATGTAACGTGA
On to B1, for which the binding result is given as “no binding”.

B2: ATG18h promoter probe (WT DRE) (dsDNA)
DNA 1: GCGGTGAAAAGACCGACGGACGAAACGTGA
DNA 2: TCACGTTTCGTCCGTCGGTCTTTTCACCGC
For the molecule B2, the binding result is “binds”.

B3: ATG8d promoter probe (WT DRE) (dsDNA)
DNA 1: TCACGTTACATATGACCGACATAAAGATAA
DNA 2: TTATCTTTATGTCGGTCATATGTAACGTGA
As to B3, the binding result is given as “binds”.

B4: ATG18h-competitor (mutated DRE) (dsDNA)
DNA 1: GCGGTGAAAAGATTGACGGACGAAACGTGA
DNA 2: TCACGTTTCGTCCGTCAATCTTTTCACCGC
B4: the binding result is “no binding”.
